Assay results as given in paper PMC5461033 (The Journal of Cell Biology, 2017).

T1: FLAG-Sec16 (1,101–1,600 aa) (human, UniProt O15027-4 1101-1600)
T1 sequence: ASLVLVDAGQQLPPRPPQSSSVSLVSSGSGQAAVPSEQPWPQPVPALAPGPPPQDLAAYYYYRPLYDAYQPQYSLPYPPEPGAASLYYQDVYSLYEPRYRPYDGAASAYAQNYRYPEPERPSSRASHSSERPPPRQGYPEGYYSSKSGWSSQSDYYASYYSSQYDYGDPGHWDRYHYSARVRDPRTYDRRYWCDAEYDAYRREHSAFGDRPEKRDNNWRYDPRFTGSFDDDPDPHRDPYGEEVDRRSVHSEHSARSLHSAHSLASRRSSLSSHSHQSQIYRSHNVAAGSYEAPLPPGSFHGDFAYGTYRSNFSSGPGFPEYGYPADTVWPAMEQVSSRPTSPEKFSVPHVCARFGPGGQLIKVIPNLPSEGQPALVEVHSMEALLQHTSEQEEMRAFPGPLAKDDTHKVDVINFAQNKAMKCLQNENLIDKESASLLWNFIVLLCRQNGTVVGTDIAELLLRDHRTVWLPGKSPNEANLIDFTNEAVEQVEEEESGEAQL


Target: T1, FLAG-Sec16 (1,101–1,600 aa)
Experiment: pull-down

binding result | Binder
binds | GST-tagged TANGO1-PRD (1,651–1,907 aa) (domain or fragment) NTQNPPRRGPLSQNGSFGPSPVSGGECSPPLTVEPPVRPLSATLNRRDMPRSEFGSVDGPLPHPRWSAEASGKPSPSDPGSGTATMMNSSSRGSSPTRVLDEGKVNMAPKGPPPFPGVPLMSTPMGGPVPPPIRYGPPPQLCGPFGPRPLPPPFGPGMRPPLGLREFAPGVPPGRRDLPLHPRGFLPGHAPFRPLGSLGPREYFIPGTRLPPPTHGPQEYPPPPAVRDLLPSGSRDEPPPASQSTSQDCSQALKQSP
binds | GST-tagged TANGO1-PRDΔ60 (1,651–1,847 aa) (domain or fragment) NTQNPPRRGPLSQNGSFGPSPVSGGECSPPLTVEPPVRPLSATLNRRDMPRSEFGSVDGPLPHPRWSAEASGKPSPSDPGSGTATMMNSSSRGSSPTRVLDEGKVNMAPKGPPPFPGVPLMSTPMGGPVPPPIRYGPPPQLCGPFGPRPLPPPFGPGMRPPLGLREFAPGVPPGRRDLPLHPRGFLPGHAPFRPLGS
